The values that follow come from patent publication US20050226864A1.

This test concerns the target recombinant, GPI-linked human FcRn on the surface of NS0 cells (human) (UniProt P55899). The test is described as follows: competitive flow cytometry on NS0 cells with human FcRn, pH 6.0; competitor biotinylated TNF-RII/Fc-fusion protein. Background: A flow cytometer gives signals particle by particle.
Chain of UniProt P55899 (P55899 24-297, chain 1 of 2): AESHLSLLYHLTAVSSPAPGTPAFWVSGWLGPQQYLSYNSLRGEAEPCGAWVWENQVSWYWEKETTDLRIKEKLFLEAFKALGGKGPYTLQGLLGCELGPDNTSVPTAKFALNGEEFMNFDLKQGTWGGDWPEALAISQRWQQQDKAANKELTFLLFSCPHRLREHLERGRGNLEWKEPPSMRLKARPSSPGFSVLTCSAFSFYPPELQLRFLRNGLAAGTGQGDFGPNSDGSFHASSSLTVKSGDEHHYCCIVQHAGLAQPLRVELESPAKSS
Chain of UniProt P55899 (b2m, as listed by the source, chain 2 of 2): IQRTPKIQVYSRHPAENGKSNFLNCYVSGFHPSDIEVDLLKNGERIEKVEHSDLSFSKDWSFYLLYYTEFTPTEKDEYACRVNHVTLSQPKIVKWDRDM

Consider “TNF-RII/Fc-fusion protein double mutant T250Q/M428L (Fc fusion)”, for which the fold better binding than the wild-type was found to be 2 fold.
